Assay results reported in the supplement of paper PMC11865577.

Legend:
Test in all cases: pull-down binding Z-score (relative to library population); higher = stronger binding
[1] = system: G-clamp-N3 (biotin conjugate); settings: RNA library: Library-1 (pre-miRNA loops + repeats)
Outline: (§1)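 Streptavidin beads bearing 100 pmol of a biotin-conjugated small molecule were incubated for 60 min at 25 °C with 1 μg of heat-folded, Cy5- or Cy3-end-labelled RNA library in phosphate/NaCl/KCl buffer. Hot SDS eluted the RNA that stayed bound after three washes, and this RNA was hybridised for 20 h at 55.5 °C to a DNA barcode microarray. Binding was expressed as a Z-score against the library mean and standard deviation, after subtraction of a beads-only signal and trimmed averaging of barcoded replicate probes.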

[2] = system: TO-3-N3 (biotin conjugate); settings: RNA library: Library-2
Outline: as §1

[3] = system: TO-3-N3-2 (biotin conjugate); settings: RNA library: Library-2
Outline: as §1

TO-N3 (biotin conjugate) = settings: RNA library: Library-2
Outline: as §1

[4] = system: TO-N3-2 (biotin conjugate); settings: RNA library: Library-2
Outline: as §1

Sequence	pull-down binding Z-score [1]	pull-down binding Z-score [2]	pull-down binding Z-score [3]	pull-down binding Z-score (TO-N3 (biotin conjugate))	pull-down binding Z-score [4]
CCUCUGUCCUCUGUCCUCUACCUAUAGAGG [hsa-mir-641]	0.349	0.224	-0.229	0.118	0.141
CCUGACAGACAGCCUGAUAGACAGG [hsa-mir-4661]	-0.998	2	0.168	1.96	0.908
CCUGAUGAAUCUGAGGCCAGG [hsa-mir-577]	1.14	-0.271	0.118	-0.18	0.326
CCUGCAGCCCCCAGGUGGGGGG [hsa-mir-4271]	0.67	0.75	-0.105	0.659	0.398
CCUGCAGGUGAGAGCGGGAACACCUGCAU [hsa-mir-7112]	0.953	-0.176	0.104	0.311	1.03
CCUGCCACGUCAAAGGAGGCAGA [hsa-mir-3154]	1.11	-0.302	-0.38	-0.164	0.137
CCUGCCCAAAUGGUGGAGCAGAUUCGAGGGGCAGG [hsa-mir-4436b-2_4436b-1]	2.51	-0.218	0.0731	-0.282	-0.125
CCUGCCUCAGAACUACUGAACAGAGUCACUGGGUGUGGA [hsa-mir-1289-2]	0.873	-0.292	-0.00545	0.181	0.785
CCUGCCUGCCCUCCAGGUCAUGUUCCAGUGUCCCACAGAUGCAGCACCACGG [hsa-mir-6075]	-0.799	0.0521	0.186	0.616	1.54
CCUGCUGUGUGAAACAAAAGUAAG [hsa-mir-302c]	-1.08	-0.422	0.0469	0.103	0.474
CCUGGAGAGCUGCUGUCUCCAG [hsa-mir-6746]	1.35	-0.114	-0.596	0.0297	0.355
CCUGUAUGUCUCCCCGCAGCACCGUCAUCGU [hsa-mir-6774]	-1.39	0.498	0.182	0.785	0.832
CCUGUCCUAUGACAAACAUGGCAGG [hsa-mir-3927]	-0.521	-0.564	-0.497	-0.547	-0.673
CCUGUUUGAAUAUUUCACCAGAAACAGG [hsa-mir-4433b]	1.2	-0.311	-0.044	-0.402	-0.74
CCUGUUUUACAAAUAAGGAAAUAAACUCAGG [hsa-mir-1321]	-1.01	-0.59	-0.326	-0.94	-1.08
CCUUAGCACUAGCAGGAGG [hsa-mir-612]	0.101	-0.588	-0.482	-0.556	0.00744
CCUUCCAAUACCUGUAAGCAGAAGG [hsa-mir-3158-2]	0.355	0.0988	0.0627	0.0957	0.397
CCUUCGCUUUAUUUGUGACGAAUC [hsa-mir-154]	-0.922	-0.799	-0.374	-0.676	-0.185
CCUUCUAAUGAGUAUGCUUAACUUGGUAGAAGG [hsa-mir-3914-1]	0.508	-0.108	-0.0963	-0.141	-0.858
CCUUCUACCAAGUUAAGCAUACUCAUUAGAAGG [hsa-mir-3914-2]	-0.275	0.653	-0.151	0.418	-0.346
CCUUCUCCUCUUUGCAGUGAUAAAGGAGG [hsa-mir-4460]	-0.412	-0.304	-0.351	-0.61	-0.549
CCUUCUGCUUACAGGUAUUGGAAGG [hsa-mir-3158-1]	0.832	-0.281	-0.401	-0.371	-0.685
CCUUCUGUAUACAUGUAUACAGGAGGAAGG [hsa-mir-4716]	0.64	0.507	0.0583	0.495	0.00714
CCUUGCCUGUGGCAAGACCACUUCGGUUCAAGG [hsa-mir-4295]	0.54	0.0272	-0.191	0.0379	0.237

Sequence	pull-down binding Z-score [1]	pull-down binding Z-score [2]	pull-down binding Z-score [3]	pull-down binding Z-score (TO-N3 (biotin conjugate))	pull-down binding Z-score [4]
CCUUGUGAAUGUCGGGCAAUGG [hsa-mir-4701]	1.59	-0.0355	0.357	0.267	0.503
CCUUUCCCCUCAGACCAAGG [hsa-mir-3131]	-0.0682	-0.315	-0.26	-0.412	-0.176
CCUUUGUGAGCAGUGUGACCCAAGGCCUGUGGACAGGG [hsa-mir-555]	0.911	-0.0854	-0.351	0.241	1.15
CGACUCCGUGGCAGAGUUCA [hsa-mir-3666]	-1.1	0.331	-0.00234	0.805	0.845
CGAGAAGCGCCUGCGUCUCCCAUUUUCG [hsa-mir-3944]	-1	0.199	0.16	0.763	1.37
CGAGACACAGAAACAGACACCUGCCCUCGA [hsa-mir-151b]	-2.29	0.442	0.464	1.21	1.69
CGAGCCGCUUCCUCACGGCUCG [hsa-mir-4665]	0.651	-0.622	-0.853	-1.04	-0.871
CGAGGUGG [hsa-mir-4302]	-0.91	0.954	-0.0533	0.973	0.675
CGAGGUGGGCUAGGCUCGGGCCCGUGGCG [hsa-mir-3656]	2.89	0.715	0.185	1.7	2.8
CGAGUCUGAGCCUUUAAAAGCCACUCU [hsa-mir-1287]	-1.4	-0.321	-0.012	0.0262	0.586
CGAUAAACCCCUAAAUAGGGACUUUCCCG [hsa-mir-484]	-0.934	-0.473	-0.266	-0.511	-0.157
CGCCAGCUCGCUGACAGCACGACUCAGGGCG [hsa-mir-658]	0.902	-0.127	0.383	0.25	1.15
CGCGCCCGGCCUAACUUUUAAGAAACGUCGGCCCGGGAGCG [hsa-mir-5095]	-0.0298	1.24	0.695	1.27	1.15
CGCGCGUCGAGUCAGCCGUGUG [hsa-mir-933]	1.31	-0.126	-0.276	0.126	0.532
CGCGGAGCAGCGCUGGGUGCAGCGCCUG [hsa-mir-4508]	-0.567	-0.051	-0.27	0.334	1.5
CGCGGGCGGGUCCCAGGCUGGGCCCCUCGGAGGCCGGGUGCUCACUGCCCCGUCCCGG [hsa-mir-6789]	0.322	0.75	-0.0304	1.7	4.13
CGCUAGUAGUGGCG [hsa-mir-3960]	0.808	-0.152	-0.644	-0.435	-0.869
CGCUGAUGUGCAUUCAACUCAUUCUCAGCA [hsa-mir-1468]	-1.2	-0.116	-0.226	0.0154	0.000597
CGCUGCCUGGAAUUAACCCCGCUGUG [hsa-mir-636]	-1.15	0.493	-0.249	0.517	0.891
CGCUGCUGGCUGCCUUCCAGCG [hsa-mir-4533]	0.074	0.221	-0.568	0.079	0.26
CGGAAUUCUCCAGAGCCUCUG [hsa-mir-6889]	-0.773	0.188	0.0162	0.453	0.584
CGGACACCCGGCCUCCACUUUCUGUGGCAGGUACCUCCUCCA [hsa-mir-4505]	0.149	0.675	0.209	1.05	1.47
CGGACGUUGCUCUCUACCCCG [hsa-mir-1247]	-0.101	0.389	0.262	0.839	1.03
CGGAGCAGUCACGUUGACGGAAUCCUCCG [hsa-mir-3183]	0.489	0.234	-0.255	0.329	0.498

Sequence	pull-down binding Z-score [1]	pull-down binding Z-score [2]	pull-down binding Z-score [3]	pull-down binding Z-score (TO-N3 (biotin conjugate))	pull-down binding Z-score [4]
CGGAGCCUCGCAGGGUCGGGCUCGGGCUCCCUAACCGUCUCCGCUUCUUC [hsa-mir-6084]	-0.288	0.896	0.558	1.36	1.77
CGGAUCUCGAGGGUGCUUAUUGUUCGGUCCG [hsa-mir-615]	1.11	0.418	0.219	0.185	0.351
CGGCGGCGGCGGCGGCGGCGGCGGCGGCGGCGGCGGCGGCGGCGGCGG [G4_r(CGG)16]	-0.145	8.23	9.63	6.82	5.03
CGGGAACCUGCCUCCCG [hsa-mir-596]	-0.566	0.264	-0.195	0.0562	-0.232
CGGGCCCCUCCCCUCAAUGGGCCCG [hsa-mir-5685]	0.108	-0.255	-0.162	-0.493	-0.886
CGGGCUGAUUGCGCUAACAGUGGCCCC [hsa-mir-4783]	-0.491	-0.256	-0.117	0.248	1.12
CGGGGCGGACGCAGAGCCGCGUUUAGUCUAUCG [hsa-mir-639]	-0.413	0.0365	-0.137	0.593	1.12
CGGGGGGGGCCCGGGGACGGCUUGGGCCUGCCUAGUCGG [hsa-mir-1234]	1.65	2.08	1.32	2.73	2.4
CGGUACCCACUGCUGAGGGUGGGGACCA [hsa-mir-3691]	-0.0994	0.628	-0.291	0.55	0.687
CGGUCCCAUAUUGAACUCG [hsa-mir-4444-1_4444-2]	-1.03	-0.626	-0.418	-0.4	-0.109
CGGUCGGAUAAUCACAUGACGAG [hsa-mir-2114]	0.425	-0.513	-0.221	-0.0316	0.592
CGGUGGUCCCUCCCG [hsa-mir-3687-1_3687-2]	-0.273	0.0703	-0.108	0.14	0.832
CGGUGUGCAAAUGUGUGUGUGCGGUGUUAUGCCG [hsa-mir-4442]	-0.0251	-0.732	-0.663	-0.869	-0.316
CGUACGCUUUAUCUGUGACGUAUG [hsa-mir-411]	0.625	-0.61	-0.338	-0.611	-0.0511
CGUAGGCGUUAUGAUUUCUGACCUAUG [hsa-mir-379]	-0.994	-0.513	-0.261	0.0365	0.473
CGUAUGUGUAUAUAAAUGUAUACG [hsa-mir-1277]	0.912	-0.965	-0.547	-1.29	-1.36
CGUGCAAGUUUAAGUUUUUGCACG [hsa-mir-4445]	0.55	0.314	-0.0878	0.282	-0.688
CGUGCACGUACCUGUCACAUGUGUACG [hsa-mir-3939]	-0.021	-0.72	-0.599	-0.867	-0.599
CGUGCGCCAGUGGAG [hsa-mir-6089-2_6089-1]	-0.0599	0.0799	-0.139	0.573	0.982
CGUGCUCAGCUUGGCACCCAAGUUCUGC [hsa-mir-7704]	-0.0193	-0.129	-0.12	0.485	1.39
CGUUCCAAUGCGACACCUCUAGAGUGUCAUCCCCUAGAAUGUCACCUUGGAAAG [hsa-mir-4432]	-1.26	-0.119	-0.104	-0.0844	-0.0713
CGUUCGCUUUAUUUAUGGCGCACA [hsa-mir-323a]	-0.817	-0.155	-0.271	-0.267	0.118
CGUUGAGUGGGCACCCGAGAAGCCAUCG [hsa-mir-425]	-0.628	0.0191	0.25	0.583	1.51
CGUUUAGUAGAUGAUUGUGCAUUGUUUCAAAAUG [hsa-mir-224]	-0.24	-0.714	-0.358	-0.502	-0.183
